In US20040167074A1, “Therapeutic applications of mFLINT polypeptides” (priority 1998, published 2004):
Entries after “also recorded” stand apart in the source; their conditions may differ.

What was measured:
BALB/c mice = assay: LPS/galactosamine liver damage and sepsis model, survival; format: in vivo, mouse; settings: for survival of mice: FIG. 5, mFLINT 200 μg i.v.
Method: Specifically, the activity of the polypeptides of the present invention against acute inflammation and apoptosis was determined using the following procedure. Briefly, BALB/c mice (Harlan) per each experimental group were given intravenous injections (the lateral tail vein) of 6 mg of D(+)-Galactosamine (Sigma, 39F-0539) in 100 μl of PBS (GIBCO-BRL) and 3 μg of Lipopolysaccharide B E. coli 026:B6 (LPS) (Difco, 3920-25-2) in 100 μl of PBS. The LPS was administered, via i.v. injection, 5 minutes after the galactosamine, which was administered i.v. […] C. F. et al J. Immunol. 1989. 142: 3884), and Anti-mouse Fas Ligand (500 μg, PharMingen, M024301) at 0, 2, 4, 6 hour-point respectively. The survival rates of the mice were determined 24 and 48 hours after LPS injection.

[1] = system: intact hippocampal neurons along the dorsal CA1 regions; assay: Gerbil cerebral ischemia (carotid occlusion), hippocampal CA1 neuron count; format: in vivo; settings: 5 min carotid occlusion; 5 ul bolus 0.63 mg/ml then 1 ul/h for 3 days intracerebral; day 5; p-0.0039 t-Test, p=0.0037 Wilcoxon
Method: Adult male gerbils (70 to 80 g body weight, Charles River Laboratories, Wilmington, Mass.) were anesthetized by i.p. injections of sodium pentobarbital (Nembutal) 40 mg/kg, and additional i.p. injections of 10 mg/kg when necessary to maintain a surgical plane of anesthesia. Animals were placed on a thermostatically controlled heating blanket to maintain body temperature at 37° C. The ventral surface of the neck was exposed, the fur shaved, and the skin cleaned with 2% iodine solution.
After the pre-surgical preparation, a midline incision was made, and the skin opened. The sternohyoid muscles were divided to exposed and isolate the common carotid arteries (CCA) for clamping. Sterilized aneurysm clips (blade with 0.15 mm, closing force ^˜10 gm) was secured by means of a sterilized clip applier on both left and right CCA for 5 minutes. The clamps were then removed and the patency of the arteries checked visually. The wound in the neck was closed by surgical suture. […]
On the fifth day of survival; the gerbils were sacrificed in a CO2 chamber. […] After staining with Cresyl violet, the sections were viewed under a microscope at 40× magnification for cell counter quantification of the intact hippocampal neurons along the dorsal CA1 regions (0.5 mm in length) of both hemispheres. Data were analyzed by Student t-Test and the Wilcoxon ranking test.

TRAIL = molecular target: T1, TRAIL (Homo sapiens, UniProt P50591); assay: Dot blot binding of mFLINT to TNF ligands
T1 construct: purchased RnD Systems
T1 sequence (P50591 114-281 limits assumed, species assumed): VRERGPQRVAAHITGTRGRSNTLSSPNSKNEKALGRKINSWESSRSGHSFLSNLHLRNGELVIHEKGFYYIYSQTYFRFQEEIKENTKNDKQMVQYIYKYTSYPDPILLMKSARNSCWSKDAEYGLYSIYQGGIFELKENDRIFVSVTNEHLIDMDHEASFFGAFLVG
Method: (§1) Dot blot experiment was performed to scan known TNF ligands that are commercially available TRAIL and FasL for interaction with mFLINT.
(§2) TRAIL (RnD Systems) and FasL (Kamiya Biomedical Company) were spotted on a nitrocellulose paper and incubated with purified mFLINT-Flag. mFLINT was washed away and binding mFLINT was detected using anti Flag antibody. Both OPG2Fc and mFLINT-Flag were overexpressed and purified according the examples above. […] The nitrocellulose paper was subsequently mixed with the cell lysate containing FasL-Myc, and further incubated on a rotator for 1 hour at room temperature. Secondary and tertiary incubations were performed with anti-myc antibody and anti-mouse IgG-HRP for 1 hour and 30 minutes respectively.

FasL = molecular target: T2, FasL (Homo sapiens, UniProt P48023); assay: Dot blot binding of mFLINT to TNF ligands; settings: chemiluminescence detection
T2 construct: made in house
T2 sequence (P48023 1-281): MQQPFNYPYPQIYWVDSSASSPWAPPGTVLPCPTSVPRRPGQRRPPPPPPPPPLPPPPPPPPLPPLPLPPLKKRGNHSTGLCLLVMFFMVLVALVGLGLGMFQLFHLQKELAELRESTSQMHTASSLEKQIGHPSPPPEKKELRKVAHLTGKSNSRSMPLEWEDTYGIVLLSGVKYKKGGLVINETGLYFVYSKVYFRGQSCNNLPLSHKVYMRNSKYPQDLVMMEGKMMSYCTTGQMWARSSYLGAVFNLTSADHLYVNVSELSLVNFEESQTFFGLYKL
Method: as §1, §2

B1: mFLINT: mature FLINT without leader peptide (FIG. 3), soluble TNFR superfamily member, made according to Examples 8 and 9 (protein)
chain: VAETPTYPWRDAETGERLVCAQCPPGTFVQRPCRRDSPTTCGPCPPRHYTQFWNYLERCRYCNVLCGEREEEARACHATHNRACRCRTGFFAHAGFCLEHASCPPGAGVIAPGTPSQNTQCQPCPPGTFSASSSSSEQCQPHRNCTALGLALNVPGSSSHDTLCTSCTGFPLSTRVPGAEECERAVIDFVAFQDISIKRLQRLLQALEAPEGWGPTPRAGRAALQLKLRRRLTELLGAQDGALLVRLLQALRVARMPGLERSVRERFLPVH
modifications: glycosylated
survival of mice (BALB/c mice; administered 2 hours before LPS/GalN): 100%
survival of mice (BALB/c mice; administered 4 hours after LPS/GalN, survival at 48 hours): 80%
animals survived to 48 hours (BALB/c mice; FIG. 6, 50 ug mFLINT): about 70%
animals alive 48 hours after LPS/GalN (BALB/c mice; FIG. 6, 400 ug i.p., 2 hours before LPS/GalN challenge): 100%
survival (BALB/c mice; FIG. 7, 1 ug iv, 4-hour post-LPS/GalN): about 2%
survival (BALB/c mice; FIG. 7, 5 ug iv, 4-hour post-LPS/GalN): 20%
survival (BALB/c mice; FIG. 7, 10 ug iv, 4-hour post-LPS/GalN): 40%
survival (BALB/c mice; FIG. 7, 50 ug iv, 4-hour post-LPS/GalN): 80%
survival (BALB/c mice; FIG. 7, 100 μg mFLINT IP, 4 hours after LPS/GalN): 80%
survival (BALB/c mice; FIG. 7, 100 μg mFLINT iv, 4 hours after LPS/GalN): 100%
effect on survival, ip compared with iv (BALB/c mice; FIG. 7, 100 μg mFLINT, 12 or 2 hours before LPS/GalN): the same
animals survived (BALB/c mice; IP 200 μg mFLINT, 2 hours post-challenge with 3 μg LPS): 100%
animals survived (BALB/c mice; IP 200 μg mFLINT, 6 hours post-challenge with 3 μg LPS): 60%
animals survived (BALB/c mice; IP, 4 hours post-challenge with 3 μg LPS (mFLINT 200 μg)): 73%
neuronal survival (intact hippocampal CA1 neurons) [1]: significant effect on neuronal survival compared to vehicle; also recorded: indistinguishable from normal controls
binding in dot blot (TRAIL): No appreciable binding
binding in dot blot (FasL): bound to FasL specifically
